# Results published in article PMC9477738, “PIF4 enhances DNA binding of CDF2 to co-regulate target gene expression and promote Arabidopsis hypocotyl cell elongation” (Nature Plants, 2022).
# Residue numbers refer to the chain shown, from its start.
# B1: MBP-PIF4^bHLH (bHLH DNA-binding domain of PIF4 fused to N-terminal maltose binding protein) (domain or fragment, Arabidopsis thaliana, UniProt Q8W2F3 248-317, looked up)
# chain: QRSGSNRRSRAAEVHNLSERRRRDRINERMKALQELIPHCSKTDKASILDEAIDYLKSLQLQLQVMWMGS
# notes: codon-optimised for E. coli; also called PIF4 bHLH domain; PIF4^bHLH WT; source: E. coli ArcticExpress, purified (Ni-NTA, size-exclusion chromatography); not shown: MBP, N-terminal, kept
# B2: MBP-PIF4^(bHLH (Mu3)) (PIF4 bHLH domain mutated in Interface 3 and Interface 4) (domain or fragment, Arabidopsis thaliana, UniProt Q8W2F3 248-317, looked up)
# chain: B1 chain with E28A, R29A, K31A, Q34A, E35A, Q64A, W67A
# notes: source: E. coli ArcticExpress, purified (Ni-NTA, size-exclusion chromatography); not shown: MBP, N-terminal, kept
# Biological target: the molecule itself
# Experiment: SEC; gel filtration of a single MBP fusion protein (self-association); HiLoad 200, 25 mM Bis-Tris pH 8.0, 150 mM NaCl
row,Protein,stoichiometry N
1,B1,4
2,B2,2
